Target: the molecule itself
Assay: SEC; Superdex 200 HR 10/30, calibrated; 240 μl of concentrated Talon eluate; 20 mM Trizma, 150 mM NaCl, 0.02% DDM; 0.5 ml/min; fractions immunoblotted for the His-tag

B1: B. subtilis TatAd with a C-terminal His-tag (natural protein, UniProt O31467 1-70, looked up)
chain: MFSNIGIPGLILIFVIALIIFGPSKLPEIGRAAGRTLLEFKSATKSLVSGDEKEEKSAELTAVKQDKNAG
notes: TatAd, Bacillus subtilis, product of the tatAd-his gene in pBAD24 (pBAd-His); also called TatAd-His; TatAd complex; not shown: His6, C-terminal, kept
B1: binds.

From paper PMC3988878, “Ultrastructural characterisation of Bacillus subtilis TatA complexes suggests they are too small to form homooligomeric translocation pores” (Biochimica et Biophysica Acta, 2013)
